Results published in patent US6361968 (US Dept. of Health and Human Services, dated 1997).

Experiments:
[1] = target: T1, 0heptadMax (dimerization domain of Max without an acidic extension) (UniProt P61244 44-113, limits assumed); experiment: heterodimer with c-Myc, dimerization study of FIG. 9
T1 construct: domain: dimerization domain; also called OheptadMax

[2] = target: T2, GBF-C/EBP chimeric protein (GBF: Arabidopsis thaliana; C/EBP: rat …); experiment: CD thermal melt, equimolar mixture, 150 mM KCl
T2 chain: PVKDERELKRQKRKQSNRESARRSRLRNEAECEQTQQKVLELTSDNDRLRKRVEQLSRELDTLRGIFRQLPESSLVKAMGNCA
Experimental: (§1) Table 1 presents the melting temperature (T_m,° C.), $\Delta G$ and k_d at 25° C. for CD thermal melts of a variety of proteins either as homodimers or an equimolar mixture of two proteins. […] The (L) denotes 'low' salt conditions (50 mM KCl, 25 mM Tris pH 8.0, 0.5 mM EDTA, 1 mM DTT) and the (H) denotes regular salt conditions (12.5 mM potassium phosphate, pH 7.4, 150 mM KCl, 0.25 mM EDTA, and 0.5 mM DTT). The latter conditions were used in Table 2. "0heptad-F" represents the F zipper with the basic region deleted. The RMS error in $\Delta G$ is 0.2 kcal/mol and 0.5 kcal/mol for homo- and heterodimers respectively.
(§2) The two chimeras were mixed with the four different length acidic extensions appended to the F zipper and their stability was determined from CD thermal melts.

[3] = target: T3, C/EBP bZIP domain (GCN4-C/EBP chimeric protein) (C/EBP: rat liver; GCN4: yeast); experiment: CD thermal melt, equimolar mixture, 150 mM KCl
T3 construct: Made in E. coli; forms a homodimer; also called C/EBP-C/EBP; wild type C/EBP
T3 chain: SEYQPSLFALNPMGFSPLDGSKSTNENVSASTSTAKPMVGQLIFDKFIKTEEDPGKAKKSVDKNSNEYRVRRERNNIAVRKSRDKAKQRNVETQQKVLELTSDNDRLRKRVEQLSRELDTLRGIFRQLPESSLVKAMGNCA
Experimental: as §1, §2

[4] = target: T4, VBP-C/EBP chimeric protein (VBP: chicken; C/EBP: rat liver); experiment: CD thermal melt, equimolar mixture, 150 mM KCl
T4 chain: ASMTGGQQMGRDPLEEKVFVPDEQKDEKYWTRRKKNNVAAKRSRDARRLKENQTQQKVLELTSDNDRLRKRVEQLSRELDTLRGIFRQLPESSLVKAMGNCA
Experimental: as §1, §2

[5] = target: the molecule itself; experiment: CD thermal melt, homodimer, 150 mM KCl
Experimental: (§3) CD analyses were performed as described in Materials and Methods of D. Krylov et al., 1994, *EMBO J.,* 13:2849–2861. T_m values were calculated as described in D, Krylov et al., 1994, Ibid, converted to K_{d(25)} and $\Delta G(25)$ using a $\Delta C_p$ of –0.96 kcal/mol° C.^-1 calculated from a T_m versus $\Delta H$ plot for all of the proteins as described herein. All thermal melts were reversible.
as §1

[6] = target: T2, GBF-C/EBP chimeric protein; experiment: CD thermal melt, equimolar mixture, 150 mM KCl, Kd at 25 C
Experimental: as §1, §2

[7] = target: T3, C/EBP bZIP domain (GCN4-C/EBP chimeric …); experiment: as above
Experimental: as §1, §2

[8] = target: T4, VBP-C/EBP chimeric protein; experiment: as above
Experimental: as §1, §2

[9] = target: the molecule itself; experiment: CD thermal melt, homodimer, 150 mM KCl, Kd at 25 C
Experimental: as §3, §1

bZIP VBP protein = target: T5, bZIP VBP protein (chicken, UniProt Q92172 235-319, limits assumed); experiment: thermal melt of the mixture equals the sum of the two homodimer curves (FIG. 5B)
T5 sequence (looked up): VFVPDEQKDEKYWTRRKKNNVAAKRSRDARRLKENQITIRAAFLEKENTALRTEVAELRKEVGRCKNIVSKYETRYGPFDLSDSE

c-Jun (unmodified) [10] = target: T6, c-Jun (unmodified) (UniProt P05412 241-331, limits assumed); experiment: from thermal melts of FIG. 4, Kd at 37 C
[11] = target: T3, C/EBP bZIP domain (GCN4-C/EBP chimeric …); experiment: thermal melt of the mixture equals the sum of the two homodimer curves (FIG. 5A)
c-Jun (unmodified) [12] = target: T6, c-Jun (unmodified); experiment: thermal melt of the mixture (FIG. 4)

T6 sequence (P05412 241-331 limits assumed): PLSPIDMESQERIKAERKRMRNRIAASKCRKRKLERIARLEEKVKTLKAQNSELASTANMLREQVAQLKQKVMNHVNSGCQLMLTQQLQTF
T1 sequence (P61244 other isoform, or with tags, fused parts or gaps limits assumed): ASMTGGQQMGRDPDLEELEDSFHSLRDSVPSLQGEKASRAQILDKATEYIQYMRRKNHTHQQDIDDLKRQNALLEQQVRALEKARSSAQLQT

B1: c-Myc bHLH protein (other)
chain: NDKRRTHNVLERQRRNELKRSFFALRDQIPELENNEKAPKVVILKKATAYILSIQADEHKLTSEKDLLRKRREQLKHKLEQLRNSGA
Kd [1]: 0.6 nM

B2: 3heptad-F (designed binder)
chain: ASMTGGQQMGRDPGGGLARENEELEKEAEELEQENAELEQEVLELESRNDRLRKEVEQLERELDTLRGIFRQLPESSLVKAMGNCA
notes: also called aZIP 3heptadF (CEBP specific)
Tm [2]: 64 °C
deltaG at 25 C [2]: -14.2 kcal/mol
Tm [3]: 63.8 °C
deltaG at 25 C [3]: -14.3 kcal/mol
Tm [4]: 64.2 °C
deltaG at 25 C [4]: -14.7 kcal/mol
deltaG at 25 C [5]: -7.9 kcal/mol
Kd [6]: 0.04 nM
Kd [7]: 0.04 nM
Kd [8]: 0.02 nM
Kd [9]: 2000 nM
binding result (bZIP VBP protein): no binding

B3: 4heptadFos (c-Fos with the basic region replaced by four acidic heptad repeats) (designed binder)
chain: MASMTGGQQMGRDPDLEQRAEELARENEELEKEAEELEQENAELEAETDQLEDEKSALQTEIANLLKEKEKLEFILAAHRPACKIP
notes: how the two entries divide the protein is not explained; also called aZIP 4heptadFos; aFos
Kd (c-Jun (unmodified) [10]): 6 nM
binding result [11]: no binding
Tm (c-Jun (unmodified) [12]): 61 °C
